Tests used:
[1] = target: HLA-A*01:01_… (HLA-PEPTIDE target G10), recombinant biotinylated complex (human, enzymatically biotinylated (BirA)); experiment: scFv PPE ELISA
[2] = target: HLA-A*02:01_… (HLA-PEPTIDE target G8), recombinant complex (human, enzymatically biotinylated (BirA) for screening and functional assays); experiment: scFv PPE ELISA

| Binder | fold selective binding to target pHLA over minipool of negative control pHLAs [1] [fold] | fold selective binding to target pHLA over minipool of negative control pHLAs [2] [fold] |
| --- | --- | --- |
| G10(4E07) scFv (scFv, V domains shown) VH: QVQLVQSGAEVKKPGSSVKVSCKASGYTFTGYYMHWVRQAPGQGLEWMGRISPSDGSTTYAPKFQGRVTITADESTSTAYMELSSLRSEDTAVYYCARDMGDAFDIWGQGTTVTVSS VL: not shown | ≥ 3 |  |
| G10(1E12) scFv (scFv, V domains shown) VH: QVQLVQSGAEVKKPGASVKVSCKASGYIFTGYYMHWVRQAPGQGLEWMGMIGPSDGSTSYAQKFQGRVTMTRDTSTSTVYMELSSLRSEDTAVYYCAREDDSMDVWGKGTTVTVSS VL: not shown | ≥ 3 |  |
| G10(4E12) scFv (scFv, V domains shown) VH: QVQLVQSGAEVKKPGASVKVSCKASGYTFTGYYMHWVRQAPGQGLEWMGMIGPSDGSTSYAQRFQGRVTMTRDTSTSTVYMELSSLRSEDTAVYYCAREEDGMDVWGQGTTVTVSS VL: DIQMTQSPSSLSASVGDRVTITCRASQGISTYLAWYQQKPGKAPKLLIYDASSLQSGVPSRFSGSGSGTDFTLTISSLQPEDFATYYCQQYYSYPWTFGQGTRLEIK | ≥ 3 |  |
| G8(2C11) scFv (scFv, V domains shown) VH: QVQLVQSGAEVKKPGASVKVSCKASGYTFTSYAMNWVRQAPGQGLEWMGWINPNSGGTNYAQKFQGRVTMTRDTSTSTVYMELSSLRSEDTAVYYCARDPFWSGHYYYYGMDVWGQGTTVTVSS VL: not shown |  | ≥ 3 |
| G10(4A02) scFv (scFv, V domains shown) VH: QVQLVQSGAEVKKPGASVKVSCKASGYTLSYYYMHWVRQAPGQGLEWMGMIGPSDGSTSYAQRFQGRVTMTRDTSTGTVYMELSSLRSEDTAVYYCARDTGDHFDYWGQGTLVTVSS VL: not shown | ≥ 3 |  |
| G10(4G06) scFv (scFv, V domains shown) VH: QVQLVQSGAEVKKPGASVKVSCKASGYTLSYYYMHWVRQAPGQGLEWMGMIGPSDGSTSYAQRFQGRVTMTRDTSTGTVYMELSSLRSEDTAVYYCARDTGDHFDYWGQGTLVTVSS VL: not shown | ≥ 3 |  |
| G8(1C01) scFv (scFv, V domains shown) VH: QVQLVQSGAEVKKPGASVKVSCKASGGTFSSHAISWVRQAPGQGLEWMGVIIPSGGTSYTQKFQGRVTMTRDTSTSTVYMELSSLRSEDTAVYYCARGDYYDSSGYYFPVYFDYWGQGTLVTVSS VL: DIQMTQSPSSLSASVGDRVTITCRASQNIYTYLNWYQQKPGKAPKLLIYDASNLETGVPSRFSGSGSGTDFTLTISSLQPEDFATYYCQQANGFPLTFGGGTKVEIK |  | ≥ 3 |
| G10(2G11) scFv (scFv, V domains shown) VH: QVQLVQSGAEVKKPGASVKVSCKASGGTFSTHDINWVRQAPGQGLEWMGVINPSGGSAIYAQKFQGRVTMTRDTSTSTVYMELSSLRSEDTAVYYCARDRGYSYGYFDYWGQGTLVTVSS VL: DIQMTQSPSSLSASVGDRVTITCRASQDISRYLAWYQQKPGKAPKLLIYDASNLETGVPSRFSGSGSGTDFTLTISSLQPEDFATYYCQQANSFPRTFGQGTKVEIK | ≥ 3 |  |
| G8(5F02) scFv (scFv, V domains shown) VH: QVQLVQSGAEVKKPGASVKVSCKASGYTFTGYYIHWVRQAPGQGLEWMGVINPSGGSTTYAQKLQGRVTMTRDTSTSTVYMELSSLRSEDTAVYYCARDRDSSWTYYYYGMDVWGQGTTVTVSS VL: EIVMTQSPATLSVSPGERATLSCRASQSVGNSLAWYQQKPGQAPRLLIYGASTRATGIPARFSGSGSGTEFTLTISSLQSEDFAVYYCQQYGSSPYTFGQGTKVEIK |  | ≥ 3 |
| G10(4D04) scFv (scFv, V domains shown) VH: QVQLVQSGAEVKKPGASVKVSCKASGYTFTGYYVHWVRQAPGQGLEWMGIIAPSDGSTNYAQKFQGRVTMTRDTSTSTVYMELSSLRSEDTAVYYCARDPGGYMDVWGKGTTVTVSS VL: DIQMTQSPSSLSASVGDRVTITCRASQSISSYLAWYQQKPGKAPKLLIYDASKLETGVPSRFSGSGSGTDFTLTISSLQPEDFATYYCQQSYGVPTFGQGTKLEIK | ≥ 3 |  |
| G8(4F05) scFv (scFv, V domains shown) VH: QVQLVQSGAEVKKPGASVKVSCKASGYTFSNMYLHWVRQAPGQGLEWMGWINPNTGDTNYAQTFQGRVTMTRDTSTSTVYMELSSLRSEDTAVYYCARGLYGDYFLYYGMDVWGQGTKVTVSS VL: DIQMTQSPSSLSASVGDRVTITCRASQGISNYLAWYQQKPGKAPKLLIYAASTLQSGVPSRFSGSGSGTDFTLTISSLQPEDFATYYCQQSYSTPLTFGGGTKVEIK |  | ≥ 3 |
| G8(5C03) scFv (scFv, V domains shown) VH: QVQLVQSGAEVKKPGASVKVSCKASGYTFTSYYMHWVRQAPGQGLEWMGWMNPNSGNTGYAQKFQGRVTMTRDTSTSTVYMELSSLRSEDTAVYYCARGLLGFGEFLTYGMDVWGQGTLVTVSS VL: DIQMTQSPSSLSASVGDRVTITCRASQGISNWLAWYQQKPGKAPKLLIYAASTLQSGVPSRFSGSGSGTDFTLTISSLQPEDFATYYCQQTYSTPWTFGQGTKLEIK |  | ≥ 3 |
| G10(1H01) scFv (scFv, V domains shown) VH: QVQLVQSGAEVKKPGASVKVSCKASGYTFTGYYMHWVRQAPGQGLEWMGMIGPSDGSTSYAQKFQGRVTMTRDTSTSTVYMELSSLRSEDTAVYYCARGVGNLDYWGQGTLVTVSS VL: DIQMTQSPSSLSASVGDRVTITCRASQSISNYLNWYQQKPGKAPKLLIYAASSLQSGVPSRFSGSGSGTDFTLTISSLQPEDFATYYCHQTYSTPLTFGQGTKVEIK | ≥ 3 |  |
| G10(1A07) scFv (scFv, V domains shown) VH: EVQLLESGGGLVKPGGSLRLSCAASGFTFSSYWMSWVRQAPGKGLEWVSGISARSGRTYYADSVKGRFTISRDDSKNTLYLQMNSLKTEDTAVYYCARDQDTIFGVVITWFDPWGQGTLVTVSS VL: DIQMTQSPSSLSASVGDRVTITCRASQGISNYLAWYQQKPGKAPKLLIYAASSLQGGVPSRFSGSGSGTDFTLTISSLQPEDFATYYCQQYFTTPYTFGQGTKLEIK | ≥ 3 |  |
| G10(4C05) scFv (scFv, V domains shown) VH: QVQLVQSGAEVKKPGASVKVSCKASGYTFTGYYMHWVRQAPGQGLEWMGIIGPSDGSTTYAQKFQGRVTMTRDTSTSTVYMELSSLRSEDTAVYYCARAENGMDVWGQGTTVTVSS VL: DIQMTQSPSSLSASVGDRVTITCRASQRISSYLNWYQQKPGKAPKLLIYSASTLQSGVPSRFSGSGSGTDFTLTISSLQPEDFATYYCQQSYSTPFTFGPGTKVDIK | ≥ 3 |  |
| G10(1H08) scFv (scFv, V domains shown) VH: QVQLVQSGAEVKKPGASVKVSCKASGVTFSTSAISWVRQAPGQGLEWMGWISPYNGNTDYAQMLQGRVTMTRDTSTSTVYMELSSLRSEDTAVYYCARDAHQYYDFWSGYYSGTYYYGMDVWGQGTTVTVSS VL: DIQMTQSPSSLSASVGDRVTITCRASQGISNYLAWYQQKPGKAPKLLIYSASNLQSGVPSRFSGSGSGTDFTLTISSLQPEDFATYYCQQAYSFPWTFGQGTKVEIK | ≥ 3 |  |
| G10(1F06) scFv (scFv, V domains shown) VH: QVQLVQSGAEVKKPGASVKVSCKASGYTFIGYYMHWVRQAPGQGLEWMGMIGPSDGSTSYAQKFQGRVTMTRDTSTSTVYMELSSLRSEDTAVYYCARDSSGLDPWGQGTLVTVSS VL: DIQMTQSPSSLSASVGDRVTITCRASQSISNYLNWYQQKPGKAPKLLIYKASSLESGVPSRFSGSGSGTDFTLTISSLQPEDFATYYCQQSYIIPYTFGQGTKLEIK | ≥ 3 |  |
| G10(3E04) scFv (scFv, V domains shown) VH: QVQLVQSGAEVKKPGASVKVSCKASGNTFIGYYVHWVRQAPGQGLEWVGIINPNGGSISYAQKFQGRVTMTRDTSTSTVYMELSSLRSEDTAVYYCARGSGDPNYYYYYGLDVWGQGTTVTVSS VL: DIQMTQSPSSLSASVGDRVTITCQASQDISNYLNWYQQKPGKAPKLLIYAASNLQSGVPSRFSGSGSGTDFTLTISSLQPEDFATYYCQQANSLPYTFGQGTKVEIK | ≥ 3 |  |
| G8(5G08) scFv (scFv, V domains shown) VH: QVQLVQSGAEVKKPGASVKVSCKASGYTFTSNYMHWVRQAPGQGLEWMGWMNPNSGNTGYAQKFQGRVTMTRDTSTSTVYMELSSLRSEDTAVYYCARGLYGDYFLYYGMDVWGQGTTVTVSS VL: not shown |  | ≥ 3 |
| G10(4D10) scFv (scFv, V domains shown) VH: QVQLVQSGAEVKKPGASVKVSCKASGYTFTGYYLHWVRQAPGQGLEWMGMIGPSDGSTSYAQKFQGRVTMTRDTSTSTVYMELSSLRSEDTAVYYCARDGDAFDIWGQGTMVTVSS VL: DIQMTQSPSSLSASVGDRVTITCRASQGISSWLAWYQQKPGKAPKLLIYDASNLETGVPSRFSGSGSGTDFTLTISSLQPEDFATYYCQQSYSTPLTFGGGTKVEIK | ≥ 3 |  |
| G10(1B07) scFv (scFv, V domains shown) VH: QVQLVQSGAEVKKPGASVKVSCKASGYTFTSYYMHWVRQAPGQGLEWMGIIHPGGGTTSYAQKFQGRVTMTRDTSTSTVYMELSSLRSEDTAVYYCARDKVYGDGFDPWGQGTLVTVSS VL: DIQMTQSPSSLSASVGDRVTITCRASQSISRWLAWYQQKPGKAPKLLIFDASRLQSGVPSRFSGSGSGTDFTLTISSLQPEDFATYYCQQAEAFPYTFGQGTKVEIK | ≥ 3 |  |
| G10(2C04) scFv (scFv, V domains shown) VH: QVQLVQSGAEVKKPGASVKVSCKASGGTFSNSIINWVRQAPGQGLEWMGWMNPNSGNTNYAQKFQGRVTMTRDTSTSTVYMELSSLRSEDTAVYYCAREQWPSYWYFDLWGRGTLVTVSS VL: not shown | ≥ 3 |  |

Source: patent US20240059797A1 (GRITSTONE BIO, published 2024)
